Where two headings read alike, the source gives them in different places.
Assays:
[1] = target: recombinant human APRIL (human) (UniProt O75888); experiment: cell-based or functional assay
[2] = target: recombinant human BAFF (human) (UniProt Q9Y275); experiment: cell-based or functional assay
[3] = target: recombinant human APRIL (human) (UniProt O75888); experiment: cell-based or functional assay; remark: listed apart in the source
[4] = target: APRIL + BAFF in combination (human); experiment: cell-based or functional assay
[5] = target: single chain BAFF homotrimer (BAFF-BAFF-BAFF) (human) (UniProt Q9Y275); experiment: cell-based or functional assay
[6] = target: recombinant human BAFF (human) (UniProt Q9Y275); experiment: cell-based or functional assay; remark: listed apart in the source
[7] = target: BAFF 60-mer (human) (UniProt Q9Y275); experiment: cell-based or functional assay
[8] = target: recombinant mouse BAFF (mouse) (UniProt Q9WU72); experiment: cell-based or functional assay
Sequence of recombinant mouse BAFF (mouse) (Q9WU72 127-309 limits assumed): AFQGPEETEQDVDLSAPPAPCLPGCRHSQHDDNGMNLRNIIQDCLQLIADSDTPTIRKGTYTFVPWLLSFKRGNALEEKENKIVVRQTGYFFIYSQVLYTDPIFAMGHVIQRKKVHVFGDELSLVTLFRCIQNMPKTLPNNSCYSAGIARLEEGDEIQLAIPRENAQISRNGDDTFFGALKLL

[9] = target: single chain BAFF-APRIL-APRIL heterotrimer (BAA) (human) (UniProt Q9Y275); experiment: cell-based or functional assay
[10] = target: recombinant mouse APRIL (mouse) (UniProt Q9D777); experiment: cell-based or functional assay
Sequence of recombinant mouse APRIL (mouse) (Q9D777 96-241 limits assumed): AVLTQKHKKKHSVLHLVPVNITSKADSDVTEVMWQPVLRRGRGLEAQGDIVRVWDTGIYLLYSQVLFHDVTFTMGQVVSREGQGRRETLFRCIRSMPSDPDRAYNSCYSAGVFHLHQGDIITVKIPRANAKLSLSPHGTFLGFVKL

[11] = target: single chain APRIL-BAFF-BAFF heterotrimer (ABB) (human) (UniProt O75888); experiment: cell-based or functional assay
[12] = target: recombinant human APRIL (human) (UniProt O75888)
[13] = target: recombinant human BAFF (human) (UniProt Q9Y275)
[14] = target: recombinant mouse BAFF (mouse) (UniProt Q9WU72)
[15] = target: recombinant mouse APRIL (mouse) (UniProt Q9D777)
[16] = target: recombinant human BAFF (human) (UniProt Q9Y275); remark: listed apart in the source
[17] = target: recombinant human BAFF (human) (UniProt Q9Y275); remark: listed apart in the source

Sequence of 13 TACI CRD2-Fc (Fc fusion) (chain): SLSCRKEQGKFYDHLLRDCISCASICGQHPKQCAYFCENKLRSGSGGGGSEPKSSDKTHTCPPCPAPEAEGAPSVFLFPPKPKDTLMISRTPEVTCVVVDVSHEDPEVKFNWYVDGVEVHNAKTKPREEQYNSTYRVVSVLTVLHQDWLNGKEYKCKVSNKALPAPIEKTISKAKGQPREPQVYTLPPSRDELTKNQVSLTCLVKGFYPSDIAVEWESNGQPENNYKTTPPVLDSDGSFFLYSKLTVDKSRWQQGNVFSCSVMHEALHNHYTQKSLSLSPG
Sequence of TACI WT 13 GSG4S (74) Fc 73 (G4S)4 (84) TACI WT 13 (Fc fusion) (chain): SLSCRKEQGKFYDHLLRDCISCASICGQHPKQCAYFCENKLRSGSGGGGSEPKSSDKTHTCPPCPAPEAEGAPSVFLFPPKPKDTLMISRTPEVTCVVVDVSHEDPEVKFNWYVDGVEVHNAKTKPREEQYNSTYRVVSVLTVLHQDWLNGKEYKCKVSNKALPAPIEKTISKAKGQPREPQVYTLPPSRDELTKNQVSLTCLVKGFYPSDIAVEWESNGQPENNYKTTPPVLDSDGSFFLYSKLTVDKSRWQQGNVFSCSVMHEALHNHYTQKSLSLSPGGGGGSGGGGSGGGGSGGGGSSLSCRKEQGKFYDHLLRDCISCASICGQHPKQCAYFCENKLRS
Sequence of Atacicept (WT TACI-Fc with the atacicept sequence) (Fc fusion) (chain): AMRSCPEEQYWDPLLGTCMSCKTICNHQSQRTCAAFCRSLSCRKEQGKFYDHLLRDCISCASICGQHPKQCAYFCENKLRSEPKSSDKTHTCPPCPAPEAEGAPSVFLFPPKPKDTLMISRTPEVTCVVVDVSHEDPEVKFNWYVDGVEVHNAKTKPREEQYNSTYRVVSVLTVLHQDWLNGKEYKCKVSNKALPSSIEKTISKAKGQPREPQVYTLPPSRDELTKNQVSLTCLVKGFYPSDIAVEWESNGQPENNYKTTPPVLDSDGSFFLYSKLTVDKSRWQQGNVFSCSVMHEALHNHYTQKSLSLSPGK
Sequence of 29 TACI CRD2-Fc (Fc fusion) (chain): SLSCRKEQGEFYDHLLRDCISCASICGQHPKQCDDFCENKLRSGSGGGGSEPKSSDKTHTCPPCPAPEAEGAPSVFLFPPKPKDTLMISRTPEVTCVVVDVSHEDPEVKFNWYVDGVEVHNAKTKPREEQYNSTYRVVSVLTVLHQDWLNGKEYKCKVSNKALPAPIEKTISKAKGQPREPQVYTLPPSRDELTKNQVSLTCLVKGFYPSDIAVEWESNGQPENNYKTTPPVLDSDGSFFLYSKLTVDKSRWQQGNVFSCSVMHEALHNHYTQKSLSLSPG
Sequence of TACI 13-118-Fc (Fc fusion) (chain): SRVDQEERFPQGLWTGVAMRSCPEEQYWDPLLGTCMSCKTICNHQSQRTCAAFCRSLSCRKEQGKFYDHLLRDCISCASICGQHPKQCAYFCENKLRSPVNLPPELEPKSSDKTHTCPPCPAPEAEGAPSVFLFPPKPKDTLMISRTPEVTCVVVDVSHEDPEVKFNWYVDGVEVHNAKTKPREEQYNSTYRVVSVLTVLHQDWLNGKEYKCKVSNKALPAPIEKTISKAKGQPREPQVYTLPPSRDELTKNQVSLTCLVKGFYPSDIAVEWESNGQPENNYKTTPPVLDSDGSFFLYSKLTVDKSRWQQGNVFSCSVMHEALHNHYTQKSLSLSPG
Sequence of TACI WT 13 (G4S)4 (84) TACI WT 13 GSG4S (74) Fc 73 (Fc fusion) (chain): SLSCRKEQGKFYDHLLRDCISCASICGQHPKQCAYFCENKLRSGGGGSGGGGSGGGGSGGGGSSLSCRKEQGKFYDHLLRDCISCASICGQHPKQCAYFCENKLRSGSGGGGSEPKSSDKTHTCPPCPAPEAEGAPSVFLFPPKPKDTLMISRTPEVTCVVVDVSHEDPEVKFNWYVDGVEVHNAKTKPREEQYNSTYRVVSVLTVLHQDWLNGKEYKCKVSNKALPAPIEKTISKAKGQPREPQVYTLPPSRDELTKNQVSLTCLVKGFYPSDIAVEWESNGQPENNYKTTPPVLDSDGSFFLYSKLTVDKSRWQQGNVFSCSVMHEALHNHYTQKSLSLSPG
Sequence of TACI 30-110-Fc (Fc fusion) (chain): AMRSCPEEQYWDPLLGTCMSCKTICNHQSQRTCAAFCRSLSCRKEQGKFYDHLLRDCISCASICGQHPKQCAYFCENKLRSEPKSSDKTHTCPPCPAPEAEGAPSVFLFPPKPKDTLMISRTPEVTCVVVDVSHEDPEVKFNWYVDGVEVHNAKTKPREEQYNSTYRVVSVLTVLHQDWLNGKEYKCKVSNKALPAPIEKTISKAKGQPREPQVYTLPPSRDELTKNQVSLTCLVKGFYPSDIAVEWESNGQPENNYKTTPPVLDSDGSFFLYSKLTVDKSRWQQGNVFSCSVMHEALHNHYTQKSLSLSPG
Sequence of 27 TACI CRD2-Fc (Fc fusion) (chain): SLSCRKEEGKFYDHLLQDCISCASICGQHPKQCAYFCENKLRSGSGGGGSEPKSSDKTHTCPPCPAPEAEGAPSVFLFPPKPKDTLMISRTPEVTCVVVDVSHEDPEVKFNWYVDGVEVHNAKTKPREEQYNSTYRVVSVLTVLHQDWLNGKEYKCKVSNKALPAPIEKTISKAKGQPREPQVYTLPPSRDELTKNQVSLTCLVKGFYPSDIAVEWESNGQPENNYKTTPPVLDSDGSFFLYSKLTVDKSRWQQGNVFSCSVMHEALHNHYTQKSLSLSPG
Sequence of WT TACI 13-118-Fc based on the published telitacicept sequence (Fc fusion) (chain): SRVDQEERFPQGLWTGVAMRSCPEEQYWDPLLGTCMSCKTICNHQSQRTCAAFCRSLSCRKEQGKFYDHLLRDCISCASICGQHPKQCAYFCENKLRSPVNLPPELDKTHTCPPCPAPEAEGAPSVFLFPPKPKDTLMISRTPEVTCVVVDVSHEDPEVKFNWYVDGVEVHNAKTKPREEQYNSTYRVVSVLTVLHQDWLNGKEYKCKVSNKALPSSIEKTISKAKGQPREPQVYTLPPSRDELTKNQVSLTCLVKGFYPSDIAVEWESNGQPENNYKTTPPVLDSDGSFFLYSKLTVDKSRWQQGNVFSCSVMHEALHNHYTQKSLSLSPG

Row | Substance | IC50, Jurkat/NF-kB/TACI reporter [1] | IC50 relative to WT TACI (68-110)-Fc (Δ WT) [1] | IC50, Jurkat/NF-kB/TACI reporter [2] | IC50 relative to WT TACI (68-110)-Fc (Δ WT) [2] | further results
1 | 13 TACI CRD2-Fc (Fc fusion) | 12.3 nM | 1 | 1.85 nM | 1 | IC50, Jurkat/NF-kB/TACI reporter [3]: 369 nM; IC50, TACI/Jurkat/NF-kB reporter [3]: 8.5 nM; IC50 relative to TACI 30-110-Fc [3]: 0.1; IC50, TACI/Jurkat/NF-kB reporter [4]: 12.9 nM; IC50, TACI/Jurkat/NF-kB reporter [5]: 7.46 nM; IC50, Jurkat/NF-kB/TACI reporter [6]: 1330 nM; IC50, TACI/Jurkat/NF-kB reporter [6]: 3 nM; IC50 relative to TACI 30-110-Fc [6]: 0.23; IC50, TACI/Jurkat/NF-kB reporter [7]: 18.7 nM; IC50, TACI/Jurkat/NF-kB reporter [8]: 2.2 nM; IC50, TACI/Jurkat/NF-kB reporter [9]: < 0.016 nM; IC50, TACI/Jurkat/NF-kB reporter [10]: 2.9 nM; IC50, TACI/Jurkat/NF-kB reporter [11]: 0.179 nM; IC50 (read off the curve), human APRIL, NF-κB luciferase reporter, Jurkat/TACI/NF-κB cells [12]: 5 nM; IC50 (read off the curve), human BAFF, NF-κB luciferase reporter, Jurkat/TACI/NF-κB cells [13]: 2 nM; IC50 (read off the curve), mouse BAFF, NF-κB luciferase reporter, Jurkat/NF-κB/TACI cells [14]: 5 nM; IC50 (read off the curve), mouse APRIL, NF-κB luciferase reporter, Jurkat/NF-κB/TACI cells [15]: 0.7 nM; IC50 (read off the curve), human BAFF, NF-κB luciferase reporter, Jurkat/NF-κB/TACI cells [16]: 4 nM; IC50 (read off the curve), human BAFF, NF-κB luciferase reporter, TACI/Jurkat/NF-κB cells [17]: 3 nM
2 | 23 TACI CRD2-Fc (A101D) (Fc fusion) | 8.38 nM | 0.68 | 1.83 nM | 0.99 | –
3 | 24 TACI CRD2-Fc (K77E, R84Q) (Fc fusion) | 4.26 nM | 0.35 | 2.26 nM | 1.22 | –
4 | 25 TACI CRD2-Fc (K77E, A101D) (Fc fusion) | 2.04 nM | 0.17 | 1.96 nM | 1.06 | –
5 | 27 TACI CRD2-Fc (Fc fusion) | 11.8 nM | 0.96 | 1.46 nM | 0.79 | IC50, Jurkat/NF-kB/TACI reporter [3]: 262 nM; IC50 relative to TACI 30-110-Fc [3]: 0.07; IC50, Jurkat/NF-kB/TACI reporter [6]: 1390 nM; IC50 relative to TACI 30-110-Fc [6]: 0.24
6 | 29 TACI CRD2-Fc (Fc fusion) | 2.91 nM | 0.24 | 1.18 nM | 0.64 | IC50, Jurkat/NF-kB/TACI reporter [3]: 339 nM; IC50 relative to TACI 30-110-Fc [3]: 0.09; IC50 relative to TACI 30-110-Fc [6]: 0.23
7 | 30 TACI CRD2-Fc (R84Q) (Fc fusion) | 0.566 nM | 0.05 | 5.49 nM | 2.96 | IC50 (read off the curve), human BAFF, NF-κB luciferase reporter, Jurkat/TACI/NF-κB cells [13]: 1 nM
8 | 32 TACI CRD2-Fc (K77E) (Fc fusion) | 0.159 nM | 0.01 | 1.54 nM | 0.83 | –
9 | 177 TACI CRD2-Fc (Q75E) (Fc fusion) | 1.94 nM | 0.16 | 1.46 nM | 0.79 | –
10 | 178 TACI CRD2-Fc (Q75E, K77E) (Fc fusion) | 10.7 nM | 0.87 | 1.89 nM | 1.02 | –
11 | 179 TACI CRD2-Fc (Q75E, F78Y) (Fc fusion) | 13.4 nM | 1.09 | 1.79 nM | 0.97 | –
12 | 180 TACI CRD2-Fc (Q75E, A101D) (Fc fusion) | 20 nM | 1.62 | 2.36 nM | 1.27 | –
13 | 181 TACI CRD2-Fc (Q75E, Y102D) (Fc fusion) | 11.1 nM | 0.9 | 2.15 nM | 1.16 | –
14 | 182 TACI CRD2-Fc (K77E, F78Y, R84Q) (Fc fusion) | 10.1 nM | 0.82 | 2.21 nM | 1.19 | –
15 | 183 TACI CRD2-Fc (F78Y) (Fc fusion) | 0.176 nM | 0.01 | 1.64 nM | 0.88 | –
16 | 184 TACI CRD2-Fc (F78Y, R84Q) (Fc fusion) | 2.62 nM | 0.21 | 2.26 nM | 1.22 | –

Row | Substance | IC50, Jurkat/NF-kB/TACI reporter [1] | IC50 relative to WT TACI (68-110)-Fc (Δ WT) [1] | IC50, Jurkat/NF-kB/TACI reporter [2] | IC50 relative to WT TACI (68-110)-Fc (Δ WT) [2] | further results
17 | 185 TACI CRD2-Fc (F78Y, A101D) (Fc fusion) | 2.02 nM | 0.16 | 1.85 nM | 1 | –
18 | 186 TACI CRD2-Fc (F78Y, Y102D) (Fc fusion) | 8.49 nM | 0.69 | 1.96 nM | 1.06 | –
19 | 187 TACI CRD2-Fc (R84Q, A101D) (Fc fusion) | 11.2 nM | 0.91 | 2.35 nM | 1.27 | –
20 | 188 TACI CRD2-Fc (R84Q, Y102D) (Fc fusion) | 12.3 nM | 1 | 1.86 nM | 1.01 | –
21 | 189 TACI CRD2-Fc (A101D, Y102D) (Fc fusion) | 33.6 nM | 2.72 | 1.95 nM | 1.05 | –
22 | 190 TACI CRD2-Fc (Y102D) (Fc fusion) | 11.6 nM | 0.94 | 1.86 nM | 1 | –
23 | 191 TACI CRD2-Fc (K77E, F78Y) (Fc fusion) | 10.1 nM | 0.82 | 1.97 nM | 1.06 | –
24 | 192 TACI CRD2-Fc (K77E, Y102D) (Fc fusion) | 0.891 nM | 0.07 | 2.18 nM | 1.17 | –
25 | Atacicept (WT TACI-Fc with the atacicept sequence) (Fc fusion) | – | – | 7.74 nM | 4.17 | IC50, Jurkat/NF-kB/TACI reporter [3]: 9.26 nM; IC50, TACI/Jurkat/NF-kB reporter [3]: > 200 nM; IC50, Jurkat/NF-kB/TACI reporter [4]: 7.72 nM; IC50, TACI/Jurkat/NF-kB reporter [4]: > 200 nM; IC50, Jurkat/NF-kB/TACI reporter [6]: 8.29 nM; IC50, TACI/Jurkat/NF-kB reporter [6]: 20.8 nM; IC50, TACI/Jurkat/NF-kB reporter [8]: 9 nM; IC50, TACI/Jurkat/NF-kB reporter [10]: 18 nM
26 | BAFF-R ECD (receptor) | – | – | 53.2 nM | 28.7 | –
27 | TACI 13-118, with K77E/F78Y/Y102D, Fc fusion | 13.2 nM | 1.07 | 1.99 nM | 1.07 | IC50, Jurkat/NF-kB/TACI reporter [3]: 848 nM; IC50 relative to TACI 30-110 [3]: 0.2; IC50, Jurkat/NF-kB/TACI reporter [6]: 2050 nM; IC50 relative to TACI 30-110 [6]: 0.46
28 | TACI 13-118-Fc (Fc fusion) | – | – | 7.91 nM | 4.26 | IC50, Jurkat/NF-kB/TACI reporter [3]: 7810 nM; IC50 relative to TACI 30-110 [3]: 1.81; IC50 relative to TACI 30-110-Fc [3]: 2.37; IC50, Jurkat/NF-kB/TACI reporter [6]: 7700 nM; IC50 relative to TACI 30-110 [6]: 1.88; IC50 relative to TACI 30-110-Fc [6]: 1.33; IC50 (read off the curve), human BAFF, NF-κB luciferase reporter, TACI/Jurkat/NF-κB cells [17]: 20 nM
29 | TACI 30-110-Fc (Fc fusion) | – | – | – | – | IC50, Jurkat/NF-kB/TACI reporter [3]: 4320 nM; IC50 relative to TACI 30-110 [3]: 1; IC50 relative to TACI 30-110-Fc [3]: 1; IC50, Jurkat/NF-kB/TACI reporter [6]: 4490 nM; IC50 relative to TACI 30-110 [6]: 1; IC50 relative to TACI 30-110-Fc [6]: 1; IC50, TACI/Jurkat/NF-kB reporter [7]: > 100 nM; IC50 (read off the curve), human BAFF, NF-κB luciferase reporter, TACI/Jurkat/NF-κB cells [17]: 20 nM
30 | TACI WT 13 (G4S)4 (84) TACI WT 13 GSG4S (74) Fc 73 (Fc fusion) | – | – | – | – | IC50, Jurkat/NF-kB/TACI reporter [3]: 34.6 nM; IC50, Jurkat/NF-kB/TACI reporter [6]: 3.29 nM; IC50, Jurkat/NF-kB/TACI reporter [7]: 4.33 nM
31 | TACI WT 13 GSG4S (74) Fc 73 (G4S)4 (84) TACI WT 13 (Fc fusion) | – | – | – | – | IC50, Jurkat/NF-kB/TACI reporter [3]: 11.9 nM; IC50, Jurkat/NF-kB/TACI reporter [6]: 1.04 nM; IC50, Jurkat/NF-kB/TACI reporter [7]: 2.58 nM
32 | WT TACI 13-118-Fc based on the published telitacicept sequence (Fc fusion) | – | – | – | – | IC50, TACI/Jurkat/NF-kB reporter [4]: > 200 nM

— patent publication US20260250352A1
